Measured values: article PMC7058448

Molecular target: gp120-gp41 protomer of cleaved gp160, HIV-1 isolate 92UG037.8 (HIV-1 isolate 92UG037.8 (clade A))
Test: cryo-EM structure

## gp120-gp41 protomer of cleaved gp160, HIV-1 isolate 92UG037.8 (complex)
  stoichiometry N: 3
